Laboratory results published in patent CN113956352A (FUJIAN MEDICAL UNIV UNION HOSPITAL, dated 2022).

How the values were obtained:
[1] = target: SARS-CoV-2 RBD蛋白 (ELISA coating antigen) (SARS-CoV-2, UniProt P0DTC2 319-541); experiment: ELISA, plate coated with SARS-CoV-2 RBD, antibody 1 μg/mL, goat anti-human IgG-HRP
SARS-CoV-2 S蛋白 (刺突糖蛋白) = SARS-CoV-2 S蛋白 (刺突糖蛋白) (SARS-CoV-2, UniProt P0DTC2 14-1273); experiment: cell-based or functional assay
[2] = target: SARS-CoV-2 S-RBD蛋白 (Acrobiosystems, cat.# SPD-C52H3) (SARS-CoV-2, UniProt P0DTC2 319-537); experiment: SPR (Biacore 8K), antibody captured on Protein A chip, S-RBD 50-0.78125 nM, 1:1 Langmuir fit

Binder | ELISA值 (OD450) [1] [OD450] | 假病毒的抑制率IC50 (Luciferase RLU, Spike假病毒, 293T-ACE2细胞) (SARS-CoV-2 S蛋白 (刺突糖蛋白)) [µg/mL] | Kd [2] [nM]
R29 (antibody, V domains shown) VH: EVQLLESGGGLVQPGRSLRLSCAASGFTFDDYGIHWVRQAQGKGLEWVSGISWNSGTIGYADSVKGRFTISRDNAKNSLYLQMNSLRAEDTALYYCAKDRGGKLRWYEREEYYFDYWGQGTLVTVSS VL: SYVLTQPPSVSVAPGQTAKITCGGNDIGRKSVYWYQQKPGQAPILVIYYSSDRPSGIPDRFSGSNSGNTATLTIGRVEAGDEADYYCQVWDSTSDHVIFGGGTKLTVL | 1.06 |  | 
R157 (antibody, V domains shown) VH: QVQLVQSGAEVKKPGSSVKVSCKASGGTFSSYAINWVRQAPGQGLEWMGGIIPILGIANYAQKFQGRVTITADKSTSTAYMELSSLRSEDTAVYYCAREQGYSGSGANYYFDYWGQGTLVTVSS VL: QSVLTQPPSVSGAPGQRVTVSCTGSSSNIGAGYDVHWYQQLPGTAPKLLIYGNTNRPSGVPDRFSGSKSGTSASLAITGLQAEDEADYYCQSYDSSLSDVVFGGGTQLTVL | 1.14 |  | 
R14 (antibody, V domains shown) VH: QVQLVQSGAEVKKPGSSVKVSCKASGGTFSSYTISWVRQAPGQGLEWMGRIIPILGIANYAQKFQGRVTITADKSTSTAYMELSSLRSEDTAVYYCAREIGYSSSGSNYYMDVWGKGTTVTVSS VL: QSVLTQPPSVSGAPGQRVTISCTGSSSNIGAGYDVHWYQQLPGTAPKLLIYGNSNRPSGVPDRFSGSKSGTSASLAITGLQAEDEADYYCQSYDSSLSGVVFGGGTKLTVL | 1.01 |  | 
R44 (antibody, V domains shown) VH: QVQLVQSGGGLVQPGGSLRLSCAASEITVSSNYMSWVRQAPGKGLEWVSVLYSGGSTDYADSVKGRFTISRDNSKNTLYLQMNSLRAEDTAVYYCAREVYGMDVWGQGTTVTVSS VL: DIVLTQTPSSLSASVGDRVTITCRASQGISSYLAWYQQKPGKAPKLLIYAASTLQSGVPSRFSGSGSGTDFTLTISSLQPEDFATYYCQELSTYPVTFGQGTKVEIK | 1.17 | 1.6 | 0.205
